Patent US20190284266A1 (H LUNDBECK A S, published 2019)

Biological target: T1, hyperphosphorylated (pathological) tau from human Alzheimer's disease brain, phosphorylated at serine 396 (human, UniProt P10636 2-758, phosphoserine at 396; hyperphosphorylated at further sites that are not listed)
T1 construct: Brain-derived material (sections, S1, S1p and sarkosyl-insoluble P3 fractions, PBS extracts), a mixture of isoforms and aggregates; also called AD-P3; AD-P3 antigens
Assay: binding of pathological versus non-pathological tau, brain material (Table 5)

T1 sequence (P10636 other isoform, or with tags, fused parts or gaps limits assumed): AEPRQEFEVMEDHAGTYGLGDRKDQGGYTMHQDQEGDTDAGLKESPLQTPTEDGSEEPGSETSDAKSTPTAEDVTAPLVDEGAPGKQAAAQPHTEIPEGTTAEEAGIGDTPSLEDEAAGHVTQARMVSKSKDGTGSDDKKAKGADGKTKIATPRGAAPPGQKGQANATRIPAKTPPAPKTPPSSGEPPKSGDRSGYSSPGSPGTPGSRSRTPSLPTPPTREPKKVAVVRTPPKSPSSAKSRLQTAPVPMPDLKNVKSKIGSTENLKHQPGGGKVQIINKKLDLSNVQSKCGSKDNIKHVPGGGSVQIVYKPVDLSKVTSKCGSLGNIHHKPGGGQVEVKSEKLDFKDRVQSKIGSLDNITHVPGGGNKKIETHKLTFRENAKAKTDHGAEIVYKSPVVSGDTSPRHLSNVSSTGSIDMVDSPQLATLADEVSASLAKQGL

B1: IPN002 (antibody, V domains shown)
VH: EVHLVESGGALVKPGGSLKLSCAASGFSFSKYGMSWVRQTPDKRLEWVATISSSGSRTYYPDSVKGQFTISRDNAKNTLYLQMSSLKSEDTAMYYCSISWDGAMDYWGQGTSVTVSS
VL: DVLMTQTPLSLPVSLGDQASISCKSSQSIVHSNGNTYLEWYLQKPGQSPKLLVYKVSNRFSGVPDRFSGSGSGTDFTLKISRVEAEDLGTYYCFQGSLVPWAFGGGTKLEIK
B1 was tested, and the “AD/ctrl (ratio of binding to AD brain tau over control brain tau)” value was 3 fold.

B2: HJ8.5 (antibody, V domains shown)
VH: EVKVEESGGGLVQPGGSMKLSCVVSGFTFSNYWVNWVRQSPEKGLEWVAQIRLKSDNYATHYEESVKGRFTISRDDSKSSVYLQMNNLRAEDSGIYYCTNWEDYWGQGTTLTVSS
VL: DIVLTQSPASLAVSLGQRATISCRASQSVSTSRYSYIHWYQQKPGQPPKLLIKYASNLESGVPARFSGSGSGTDFTLNIHPLEEEDAATYYCHHSWEIPLTFGAGTKLELK
B2 was tested, and the “AD/ctrl (ratio of binding to AD brain tau over control brain tau)” value was 3 fold.
